Consider 3 molecules from publication PMC3350560.

The chains are these.
B1: probe C (oligo C) (dsDNA)
DNA 1: GGCAAACAGCAGGAATTCCTAAAAAATTCGAAAAGGTTTCT
DNA 2: AGAAACCTTTTCGAATTTTTTAGGAATTCCTGCTGTTTGCC
B2: probe A (oligo A) (dsDNA)
DNA 1: GATTTGCGTTTTAGAGGCTATAGGCTCTTGAAACTCTCCA
DNA 2: TGGAGAGTTTCAAGAGCCTATAGCCTCTAAAACGCAAATC
B3: probe D (oligo D) (dsDNA)
DNA 1: CAATGATTTGCGTTTTAG
DNA 2: CTAAAACGCAAATCATTG

The target in this data set is rCKAP4 (recombinant CKAP4 extracellular domain) (UniProt Q07065 126-501). Briefly: EMSA.
Sequence of rCKAP4 (recombinant CKAP4 extracellular domain) (Q07065 126-501): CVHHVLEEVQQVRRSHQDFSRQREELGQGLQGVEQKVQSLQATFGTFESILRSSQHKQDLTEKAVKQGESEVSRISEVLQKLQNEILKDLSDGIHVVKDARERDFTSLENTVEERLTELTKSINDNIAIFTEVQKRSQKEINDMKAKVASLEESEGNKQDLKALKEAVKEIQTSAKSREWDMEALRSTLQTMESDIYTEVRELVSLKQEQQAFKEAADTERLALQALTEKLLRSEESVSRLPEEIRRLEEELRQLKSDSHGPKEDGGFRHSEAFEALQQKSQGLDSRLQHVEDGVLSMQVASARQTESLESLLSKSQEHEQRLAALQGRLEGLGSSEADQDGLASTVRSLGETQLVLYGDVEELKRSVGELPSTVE
For B1, the binding result is “no binding”.
On to B2, for which the binding result was “binds”.
For the molecule B3, the binding result is recorded as “no binding”.
